Reference: the supplement of paper PMC10567573
± gives the standard deviation.

Assay: protein stability index of a GFP-peptide fusion (GPS, HEK-293T) (PSI 1-6); higher = more stable
[1] = treatment: DMSO, c terminus: a fixed tail appended
[2] = treatment: MLN4924 1 uM, 8 h, c terminus: a fixed tail appended
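Also: 24-mer peptide tiles fused after GFP, lentivirally expressed, FACS-sorted into six equal bins by GFP/DsRed ratio, decoded by Illumina sequencing, PSI is the read-weighted mean bin number.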

Sequence	protein stability index [1]	protein stability index [2]	protein stability index (treatment: DMSO, c terminus: native)	protein stability index (treatment: MLN4924 1 uM, 8 h, c terminus: native)
LQRASILDMRRDHEEQLQRLKLLK [FBF1]	3.43 ± 0.48	3.72 ± 0.33		
GVRSREDAQGSEMVTCKSEFYHDE [GAN]	5.22 ± 0.12	5.08 ± 0.47		
CGCGSFCRLGYGCGYEGCRYGCGH [KRTAP19-2]	2.55 ± 0.44	2.62 ± 0.46		
QPLNFVRFYLPLLIHQHEKVIYLD [GLT8D2]	3.02 ± 0.59	3.03 ± 0.69		
LCRRLNTLNKCAVMKLEISPHRKR [DLC1]	2.12 ± 0.069	2.85 ± 0.22		
MAEASATGACGEAMAAAEGSSGPA [SEPHS2]	5.44 ± 0.2	5.3 ± 0.17		
KLIRDFDEKQQEANETLAEMEEEL [VTI1B]	4.89 ± 0.32	5.3 ± 0.19		
VFIDFSVYNANINLFCVLRLVVEF [PKD2L1]	3.51 ± 0.61	2.7 ± 0.4		
AKVDGETASDSESRAESAPLPVSA [CDS2]	5.57 ± 0.15	5.5 ± 0.27		
GRRYEAVKWMVVFAIGVCTGLVGL [CLCN6]	3.33 ± 0.1	3.2 ± 0.092		
RQAVAWLVAMHKAAKLLYESRDQ [ZFYVE21]			2.95 ± 1.1	2.28 ± 0.3
PDVVVRSFMTWLRSYIKLFQAPCQ [MED27]	2.06 ± 0.19	2.12 ± 0.28		
PRGQEGSRQDKPLSPAGSSQEAAD [YJU2B]	5.54 ± 0.079	5.48 ± 0.2		
KVPFSQEIKDLILPKISDPNFVKD [PI4K2A]	3.56 ± 0.24	3.56 ± 0.28		
SPVAHKHLSRQKIDPLLYMTEWFM [TBC1D10A]	2.19 ± 0.18	2.23 ± 0.16		
ALTRLERHLERKAWVANFERPRMN [CRY1]	2.42 ± 0.048	2.66 ± 0.6		
KVEVDMEKIAAEIAQAEEQARKRQ [SMARCE1]	4.99 ± 0.27	4.78 ± 0.37		
RHCPELAEMSRVSIRILDELVLPF [HNF4A]	2.12 ± 0.13	2.31 ± 0.38		
YYSVETVTLLVALKVRYRERITIL [PPP2CA]	2.63 ± 0.69	2.56 ± 0.58		
RLAAIAQEKDQEMERLRELQRASI [FBF1]	4.34 ± 0.17	4.43 ± 0.22		
PVENFFVKCNGALINTSDTVQHGA [SDE2]	3.07 ± 0.12	3.08 ± 0.26		
SPPLSTEAHFMLQVADINDNPPTF [PCDHGA10]	3.73 ± 0.17	3.9 ± 0.19		

Sequence	protein stability index [1]	protein stability index [2]	protein stability index (treatment: DMSO, c terminus: native)	protein stability index (treatment: MLN4924 1 uM, 8 h, c terminus: native)
STSEESWTDSEVDSSCSGQPIHLW [SPDEF]	4.21 ± 0.32	4.37 ± 0.25		
THALAEWASRREAFAQRPSSAPDL [CDC25B]	3.91 ± 0.26	4.01 ± 0.082		
MCPPVSMRYEEEGMSYLYASWMYQ [TEX19]	2.3 ± 0.082	2.11 ± 0.22		
IIYKQTKGGVQNFNKDLVQDCGFE [CEP70]	1.96 ± 0.42	2.66 ± 0.22		
GRRCKKCTEGPIDLVFVIDGSKSL [MATN2]	2.06 ± 0.35	2.41 ± 0.44		
VGVATADAPLHSVGYTTLVGNNHE [SPSB1]	4.25 ± 0.45	4.16 ± 0.19		
TVGDLGIVRRRSRDVPESPQHAAD [YJU2B]	5.08 ± 0.25	5.3 ± 0.17		
TIEYLKRHNALLSKRLLALTSSDL [TMEM192]	2.38 ± 0.42	2.17 ± 0.21		
SLQERKQALYEYARRRFTERRAQE [AUP1]	4.53 ± 0.18	4.44 ± 0.21		
FADEKNILHIMVKVVKGHRPELPP [RIPK4]	2.3 ± 0.32	2.36 ± 0.36		
DKENGENVGLESKYLKKREDSIPL [SASS6]	5.03 ± 0.18	4.76 ± 0.24		
ADILAGREDNSGSDVLIGDILVLL [SLC35F2]	2.48 ± 0.26	2.43 ± 0.18		
CGRAFSRKSLLVVHQRTHTGEKPH [ZNF649]	2.69 ± 0.26	2.64 ± 0.093		
LMPGMPPGMPPPVPRPGIPPMTQA [ZNF207]	4.01 ± 0.34	4.2 ± 0.31		
RQFLPEEFMKTLEKTGPQLTSRIK [DENND6A]	3.55 ± 0.33	3.58 ± 0.43		
EIDCVDKDGNTPLHVAARYGHELL [ANKRD44]	4.05 ± 0.26	4.05 ± 0.19		
GERPRSEEDNELNLPNLAAAYSSI [GCH1]	4.71 ± 0.3	4.75 ± 0.075		
FDTNAEGCILQWKKIYCRICMAQI [ZBED1]	2.39 ± 0.65	2.04 ± 0.079		
PSTYGGGLSVSSRFSSGGACGLGG [KRT16]	3.21 ± 0.21	3.44 ± 0.2		
NVHFKEETVKLFICELVMALDYLQ [STK32A]	2.81 ± 0.7	2.85 ± 0.62		
PAYVGPEILSSRASYSGKAADVWS [TRIB3]	3.09 ± 0.2	3.18 ± 0.19		
SWRTLAILVNLQGTVVFLLSLFIP [SLC22A15]	3.4 ± 0.53	2.89 ± 0.11		

Sequence	protein stability index [1]	protein stability index [2]	protein stability index (treatment: DMSO, c terminus: native)	protein stability index (treatment: MLN4924 1 uM, 8 h, c terminus: native)
MGNSHCVPQAPRRLRASFSRKPSL [PLEKHN1]	3.66 ± 0.096	3.69 ± 0.11		
EPIPFWTFLSRILTGLNYEAPKYH [NSDHL]	2.62 ± 0.23	2.76 ± 0.42		
EDDSMSVIEPVVENSGILQGKLIK [EFHC1]	4.89 ± 0.45	5.45 ± 0.25		
GPDDSLWDKHACPAYVGPEILSSR [TRIB3]	3.56 ± 0.25	3.54 ± 0.33		
GFSLEDPQTHSNRIYRMIKLGLGI [HSP90AB1]	2.06 ± 0.42	2.29 ± 0.3		
DENEDVNFDHFEILRAIGKGSFGK [STK32A]	4.22 ± 0.18	4.14 ± 0.17		
HVAAAVLRIRSVEGRKKAFSTCGS [OR3A1]	2.3 ± 0.24	2.22 ± 0.34		
AEVSWEPGRREGCDICAGKAGCPI [RPS21]	3.29 ± 0.31	3.89 ± 0.26		
AILFTRQDLCGVSTCDTLGMADVG [ADAMTS4]	1.8 ± 0.28	2.66 ± 0.22		
LHDNHEQMPTEIEFPESRKPISTK [ZNF649]	5.1 ± 0.22	5.25 ± 0.31		
SDNMSHLMVDFAQERQMLQALKFL [FSD1]	2.55 ± 0.3	2.49 ± 0.23		
ARYGHLDMVEFLLEQCSASIEVGG [FEM1C]	2.48 ± 0.5	2.14 ± 0.36		
LYRNGKDQDGDQAPEYRGRTELLK [MOG]	4.59 ± 0.14	4.68 ± 0.34		
HRRFCELLPQEQRSVESSLRAQVP [CIB1]	3.63 ± 0.13	3.66 ± 0.15		
LVGAQAPATEEQEAASSSSTLVEV [MAGEA3]	5.43 ± 0.21	5.3 ± 0.097		
NSVSSHASSPYISSVQSYPGSASL [DLX1]	3.65 ± 0.19	3.75 ± 0.23		
LRIRSVEGRKKAFSTCGSHLTVVA [OR3A1]	2.43 ± 0.42	2.2 ± 0.47		
TESEARYSSQLSQVQSLITNVESQ [KRT33B]	4.66 ± 0.31	4.75 ± 0.071		
KHFCPRAPVILVGCQLDLRYADLE [RHOBTB2]	2.3 ± 0.65	2.52 ± 0.59		
GPEDLSYQIYDVSGESNSAVSTED [LARP4]	5.39 ± 0.17	5.44 ± 0.13		
LTFMNEQGEYPPGTSTWQFNFKFN [CNOT7]	2.21 ± 0.074	2.39 ± 0.3		
